Results reported in IntAct's records for PubMed 21586138.

B1: E3 ubiquitin-protein ligase SH3RF1 (Homo sapiens), Q7Z6J0 (parent)
chain: MDESALLDLLECPVCLERLDASAKVLPCQHTFCKRCLLGIVGSRNELRCPECRTLVGSGVEELPSNILLVRLLDGIKQRPWKPGPGGGSGTNCTNALRSQSSTVANCSSKDLQSSQGGQQPRVQSWSPPVRGIPQLPCAKALYNYEGKEPGDLKFSKGDIIILRRQVDENWYHGEVNGIHGFFPTNFVQIIKPLPQPPPQCKALYDFEVKDKEADKDCLPFAKDDVLTVIRRVDENWAEGMLADKIGIFPISYVEFNSAAKQLIEWDKPPVPGVDAGECSSAAAQSSTAPKHSDTKKNTKKRHSFTSLTMANKSSQASQNRHSMEISPPVLISSSNPTAAARISELSGLSCSAPSQVHISTTGLIVTPPPSSPVTTGPSFTFPSDVPYQAALGTLNPPLPPPPLLAATVLASTPPGATAAAAAAGMGPRPMAGSTDQIAHLRPQTRPSVYVAIYPYTPRKEDELELRKGEMFLVFERCQDGWFKGTSMHTSKIGVFPGNYVAPVTRAVTNASQAKVPMSTAGQTSRGVTMVSPSTAGGPAQKLQGNGVAGSPSVVPAAVVSAAHIQTSPQAKVLLHMTGQMTVNQARNAVRTVAAHNQERPTAAVTPIQVQNAAGLSPASVGLSHHSLASPQPAPLMPGSATHTAAISISRASAPLACAAAAPLTSPSITSASLEAEPSGRIVTVLPGLPTSPDSASSACGNSSATKPDKDSKKEKKGLLKLLSGASTKRKPRVSPPASPTLEVELGSAELPLQGAVGPELPPGGGHGRAGSCPVDGDGPVTTAVAGAALAQDAFHRKASSLDSAVPIAPPPRQACSSLGPVLNESRPVVCERHRVVVSYPPQSEAELELKEGDIVFVHKKREDGWFKGTLQRNGKTGLFPGSFVENI
partner: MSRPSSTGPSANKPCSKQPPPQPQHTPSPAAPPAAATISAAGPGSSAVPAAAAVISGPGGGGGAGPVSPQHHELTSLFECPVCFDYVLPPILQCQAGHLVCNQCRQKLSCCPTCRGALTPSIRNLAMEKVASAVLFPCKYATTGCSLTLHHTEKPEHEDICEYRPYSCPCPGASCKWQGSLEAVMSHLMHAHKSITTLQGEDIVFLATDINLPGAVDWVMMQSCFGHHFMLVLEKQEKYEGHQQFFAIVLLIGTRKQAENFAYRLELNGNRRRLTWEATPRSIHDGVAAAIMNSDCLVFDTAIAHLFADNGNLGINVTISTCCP

Variants of: B1
Settings: with siah2_human SIAH2, O43255

effect of a mutation on the interaction | Variant
disrupting interaction | V605N;P607N
